This is an account of results in PMC5910394 (Nature Communications, 2018).

The assay concerns the target T1, HER2 on BT474 cells (Homo sapiens, BT474 cells, UniProt P04626).
T1 construct: HER2 (human epidermal growth factor receptor 2) on HER2-overexpressing BT474 breast cancer cells; source: endogenous, on BT474 cells
The assay can be described thus: flow cytometry on cells; BT474 cells with 1, 10 or 100 nM of the AF647-carrying memAb complex. The note with it: one partner purified. A general note: In flow cytometry, cells or beads pass a laser one at a time.

B1: memAb pertuzumab IgG with pre-bound 5-diphenylalanine-meditope-Alexa-647 (complex)
VH: EVQLVESGGGLVQPGGSLRLSCAASGFTFTDYTMDWVRQSPGKGLEWVADVNPNSGGSIYNQRFKGRFTLSVDRSKNTLYLQMNSLRAEDTAIYYCARNLGDGFYAMDYWGQGTLVTVSS
VL: DIQLTQSPVILSASVGDRVTITCRAGESVDIFGVGFLHWYQQRTNGSPRLLIYRASNLESGVPSRFSGSGSRTDFTLTISSLQPEDEADYYCQQTNEDPYTFGAGTKVEIK
notes: as the heavy chain of Dm25; as the light chain of Dm25; as the peptide Dm26; non-covalent complex; source: IgG: ExpiCHO, purified; peptide: synthetic; copies: + +
Turning to B1, the binding result is “binds”.
